Results published in patent US20020098541A1 (published 2002).

Experiments:
Experiment in all cases: co-immunoprecipitation from co-transfected 293 cell lysates: anti-FLAG IP, anti-HA immunoblot
FLAG tagged TRAF 2 = biological target: T1, FLAG tagged TRAF 2 (UniProt Q12933 1-501, limits assumed)
T1 sequence (looked up): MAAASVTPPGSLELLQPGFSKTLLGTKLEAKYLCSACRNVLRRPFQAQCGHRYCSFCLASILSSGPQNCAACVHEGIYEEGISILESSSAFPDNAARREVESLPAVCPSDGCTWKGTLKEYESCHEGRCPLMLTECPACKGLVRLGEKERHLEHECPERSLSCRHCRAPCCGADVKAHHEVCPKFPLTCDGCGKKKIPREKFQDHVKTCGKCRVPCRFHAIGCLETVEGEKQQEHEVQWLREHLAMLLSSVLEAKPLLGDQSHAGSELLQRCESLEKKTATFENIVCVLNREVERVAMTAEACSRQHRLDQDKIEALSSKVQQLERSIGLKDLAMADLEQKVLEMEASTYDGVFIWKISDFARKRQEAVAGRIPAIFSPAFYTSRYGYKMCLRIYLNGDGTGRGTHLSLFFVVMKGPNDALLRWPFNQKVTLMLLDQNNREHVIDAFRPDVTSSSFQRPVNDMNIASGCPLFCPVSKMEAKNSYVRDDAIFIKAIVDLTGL
Description: (§1) For TRAF binding assays, 5×10⁵ 293 cells were transfected with 10 μg of HA tagged TR12 and 10 μg of FLAG tagged TRAF 1, 2, 3, 5, or 6 by the calcium phosphate method and cells were harvested 48 hours post transfection in lysis buffer (with 1% NP-40). Whole cell lysates were immunoprecipated with anti-FLAG M2 beads (Sigma, MO), washed 5× with lysis buffer (without BSA), boiled 5 minutes, separated by 10% SDS PAGE, transferred to nitrocellulose, probed with anti-HA HRP (Roche), and developed with ECL (Amersham).
(§2) Since NF-κB activation by TNFR superfamily members is mediated primarily by the TRAF family of signaling molecules, the ability of TR12 to bind any of the TRAF molecules was studied. 293 cells were co-transfected with a FLAG tagged TRAF expression plasmid and a hemagglutinin tagged TR12 expression plasmid.

FLAG tagged TRAF 5 = FLAG tagged TRAF 5 (UniProt O00463 1-557, limits assumed)
Description: as §1, §2

FLAG tagged TRAF 3 = biological target: T2, FLAG tagged TRAF 3 (UniProt Q13114 1-568, limits assumed)
T2 sequence (looked up): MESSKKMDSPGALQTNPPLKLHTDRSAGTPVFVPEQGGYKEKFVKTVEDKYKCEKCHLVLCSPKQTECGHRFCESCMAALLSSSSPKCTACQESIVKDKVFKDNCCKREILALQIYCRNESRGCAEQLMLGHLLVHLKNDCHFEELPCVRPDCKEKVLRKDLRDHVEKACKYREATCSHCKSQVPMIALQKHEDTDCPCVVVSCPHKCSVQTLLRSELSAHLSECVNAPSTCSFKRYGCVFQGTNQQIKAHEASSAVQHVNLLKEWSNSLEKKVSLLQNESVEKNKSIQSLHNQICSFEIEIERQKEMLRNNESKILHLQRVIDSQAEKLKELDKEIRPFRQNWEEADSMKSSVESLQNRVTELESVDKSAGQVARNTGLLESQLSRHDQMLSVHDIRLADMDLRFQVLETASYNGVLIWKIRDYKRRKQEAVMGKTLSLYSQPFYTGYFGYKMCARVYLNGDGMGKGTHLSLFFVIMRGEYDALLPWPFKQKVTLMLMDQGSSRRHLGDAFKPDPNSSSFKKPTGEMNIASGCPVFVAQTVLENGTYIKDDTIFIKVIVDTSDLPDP
Description: as §1, §2

FLAG tagged TRAF 6 = biological target: T3, FLAG tagged TRAF 6 (UniProt Q9Y4K3 1-522, limits assumed)
T3 sequence (looked up): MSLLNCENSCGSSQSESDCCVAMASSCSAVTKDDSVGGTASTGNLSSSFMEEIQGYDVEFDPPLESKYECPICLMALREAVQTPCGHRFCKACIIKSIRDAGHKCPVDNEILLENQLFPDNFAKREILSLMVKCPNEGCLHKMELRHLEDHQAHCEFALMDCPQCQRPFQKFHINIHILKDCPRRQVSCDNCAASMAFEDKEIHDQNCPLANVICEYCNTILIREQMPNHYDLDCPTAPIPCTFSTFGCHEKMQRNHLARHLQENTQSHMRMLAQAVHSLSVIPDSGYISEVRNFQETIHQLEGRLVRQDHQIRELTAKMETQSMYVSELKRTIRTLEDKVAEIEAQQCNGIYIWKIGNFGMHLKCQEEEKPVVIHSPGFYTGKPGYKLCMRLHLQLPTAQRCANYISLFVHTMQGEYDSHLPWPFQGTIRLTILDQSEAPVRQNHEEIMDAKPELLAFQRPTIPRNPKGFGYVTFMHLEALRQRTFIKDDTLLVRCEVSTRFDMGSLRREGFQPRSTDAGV
Description: as §1, §2

Measured: binding result

Chain of FLAG tagged TRAF 5 (O00463 whole entry): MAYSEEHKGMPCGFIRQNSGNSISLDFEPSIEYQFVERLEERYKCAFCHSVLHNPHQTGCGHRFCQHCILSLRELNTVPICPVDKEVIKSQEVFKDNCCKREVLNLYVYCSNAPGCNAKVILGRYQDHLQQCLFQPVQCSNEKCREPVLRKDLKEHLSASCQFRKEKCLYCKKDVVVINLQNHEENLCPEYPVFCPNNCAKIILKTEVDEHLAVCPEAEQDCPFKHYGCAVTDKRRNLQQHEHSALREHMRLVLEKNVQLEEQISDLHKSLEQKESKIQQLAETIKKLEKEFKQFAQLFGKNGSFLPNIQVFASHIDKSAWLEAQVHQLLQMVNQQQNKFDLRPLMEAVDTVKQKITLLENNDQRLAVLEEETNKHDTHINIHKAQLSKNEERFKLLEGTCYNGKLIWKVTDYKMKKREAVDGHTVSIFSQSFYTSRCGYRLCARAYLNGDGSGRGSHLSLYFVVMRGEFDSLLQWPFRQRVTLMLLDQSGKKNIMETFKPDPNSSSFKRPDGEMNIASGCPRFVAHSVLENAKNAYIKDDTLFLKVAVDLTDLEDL

B1: HA tagged TR12 (TNFR Related Gene 12) (receptor)
chain: STTLWQCPPGEEPDLDPGQGTLCRPCPPGTFSAAWGSSPCQPHARCSLWRRLEAQVGMATRDTLCGDCWPGWFGPWGVPRVPCQPCSWAPLGTHGCDEWGRRARRGVEVAAGASSGGETRQPGNGTRAGGPEETAAQYAVIAIVPVFCLMGLLGILVCNLLKRKGYHCTAHKEVGPGPGGGGSGINPAYRTEDANEDTIGVLVRLITEKKENAAALEELLKEYHSKQLVQTSHRPVSKLPPAPPNVPHICPHRHHLHTVQGLASLSGPCCSRCSQKKWPEVLLSPEAVAATTPVPSLLPNPTRVPKAGAKAGRQGEITILSVGRFRVARIPEQRTSSMVSEVKTITEAGPSWGDLPDSPQPGLPPEQQALLGSGGSRTKWLKPPAENKAEENRYVVRLSESNLVI
notes: Expressed from a plasmid in transfected 293 cells and tested in whole cell lysate; It includes the predicted leader (about residues 1-25), which may be cleaved in cells; also called hemagglutinin tagged TR12; not shown: HA (hemagglutinin) tag
no binding: all assays above
